Patent US20240092867A1 (UNIVERSITY OF CHICAGO, published 2024)

T1: vascular endothelial growth factor (VEGF)-A121 (human, UniProt P15692-9 27-147)
T1 construct: mature; Purchased in mature form, not glycosylated
T1 sequence (looked up): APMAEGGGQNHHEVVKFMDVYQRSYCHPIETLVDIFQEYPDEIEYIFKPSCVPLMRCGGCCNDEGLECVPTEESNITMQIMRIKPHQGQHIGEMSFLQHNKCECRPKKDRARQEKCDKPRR

T2: placental growth factor (PlGF)-1 (human, UniProt P49763-2 19-149)
T2 construct: mature; Purchased in mature form
T2 sequence (looked up): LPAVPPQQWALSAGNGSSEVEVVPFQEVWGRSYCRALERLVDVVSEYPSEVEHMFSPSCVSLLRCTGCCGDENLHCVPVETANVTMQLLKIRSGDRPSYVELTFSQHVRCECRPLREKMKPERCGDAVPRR

T3: placental growth factor (PlGF)-2 (human, UniProt P49763-3 19-170)
T3 construct: mature; Purchased in mature form
T3 sequence (looked up): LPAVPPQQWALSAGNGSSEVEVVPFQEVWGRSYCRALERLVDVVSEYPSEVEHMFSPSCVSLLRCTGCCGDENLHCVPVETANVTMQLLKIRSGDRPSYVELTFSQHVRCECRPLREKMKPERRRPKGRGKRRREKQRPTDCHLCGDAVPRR

T4: recombinant human VEGF-A145 (human, UniProt P15692-6 27-171)
T4 sequence (looked up): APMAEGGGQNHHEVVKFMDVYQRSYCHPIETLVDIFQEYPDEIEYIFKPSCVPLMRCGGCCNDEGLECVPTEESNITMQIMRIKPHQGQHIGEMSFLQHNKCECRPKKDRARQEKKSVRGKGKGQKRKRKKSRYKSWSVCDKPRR

B1: laminin α5 3312-3325 peptide (Linker) (peptide)
peptide: ARKASRRSRQPARH
notes: Chemically synthesized (Genscript)
B2: Scrambled HBD (peptide)
peptide: LYCEIARGYSLKRKVPDQIRSRKA
notes: also called scrambled vWF A1 HBD peptide

What was measured:
[1] = target: T5, platelet-derived growth factor (PDGF)-BB (human, UniProt P01127 82-190); assay: ELISA, peptide coated
T5 construct: mature; Purchased in mature form
In short: (§1)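 Wells coated with 10 μg/mL laminin α3/α4/α5 LG-domain peptides, BSA-coated wells as non-binding control, blocked with 2% BSA PBS-T. Recombinant human GFs added at 1 μg/mL; bound GF detected with GF-specific biotinylated antibody plus streptavidin-HRP (n=4, mean±SEM).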

[2] = target: T1, vascular endothelial growth factor …; assay: ELISA, peptide coated
In short: as §1

[3] = target: T6, fibroblast growth factor (FGF)-2 (human, UniProt P09038 143-288); assay: ELISA, peptide coated
T6 construct: mature; Purchased in mature form
In short: as §1

[4] = target: T2, placental growth factor (PlGF)-1; assay: ELISA, peptide coated
In short: as §1

[5] = target: T3, placental growth factor (PlGF)-2; assay: ELISA, peptide coated
In short: as §1

[6] = target: T7, vascular endothelial growth factor (VEGF)-A165 (human, UniProt P15692-4 27-191); assay: ELISA, peptide coated
T7 construct: mature; Purchased in mature form, not glycosylated
In short: as §1

[7] = target: T1, vascular endothelial growth factor …; assay: ELISA; peptides and vWF forms coated at 50 nM, VEGF-A in solution, detected with anti-VEGF-A antibody [panel D]
Description: (A) Diagram of exon sequence of VEGF-A showing inclusion (+) or exclusion (−) of heparin binding domain exons for the different VEGF-A isoforms. […] Bound VEGF-A was detected using a specific antibody for VEGF-A (n=4, mean±SD). Statistical comparisons were done using ANOVA with Tukey's test compared with BSA control. **p<0.01.
(§2) ELISA was performed as previously reported1. […] After blocking with 2% BSA solution containing PBS-T, 1 μg/mL of recombinant human VEGF-A121 (PeproTech), recombinant human VEGF-A145 (R & D Systems), or recombinant human VEGF-A165 (PeproTech) was added. Bound VEGF-A was detected with 1 μg/mL of mouse anti-human VEGF-A antibody (clone: 26503, R & D systems). After 60 min of incubation, horseradish peroxidase (HRP) conjugated goat anti-mouse antibody (1:2000 dilution, Dako) was added and incubated for another 60 min. Color development and the absorbance measurement were done as described above.

[8] = target: T4, recombinant human VEGF-A145; assay: ELISA, peptide coated 50 nM
Description: as §2

[9] = target: T7, vascular endothelial growth factor …; assay: ELISA, peptide coated 50 nM
Description: as §2

T6 sequence (P09038 143-288): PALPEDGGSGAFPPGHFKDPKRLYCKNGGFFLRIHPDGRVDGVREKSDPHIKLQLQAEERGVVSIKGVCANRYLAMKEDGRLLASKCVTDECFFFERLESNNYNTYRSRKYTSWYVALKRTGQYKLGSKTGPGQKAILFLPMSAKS
T5 sequence (P01127 82-190): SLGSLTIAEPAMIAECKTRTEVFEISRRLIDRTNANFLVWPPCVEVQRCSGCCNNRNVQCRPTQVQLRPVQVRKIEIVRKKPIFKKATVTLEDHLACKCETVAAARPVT

Row | Binder | binding result [1] | binding result [2] | binding result [3] | binding result [4] | binding result [5] | binding result [6] | binding result [7] | binding result [8] | binding result [9]
1 | B1 | no binding (tested: 1 µg/mL) | no binding (tested: 1 µg/mL) | no binding (tested: 1 µg/mL) | no binding (tested: 1 µg/mL) | no binding (tested: 1 µg/mL) | no binding (tested: 1 µg/mL) | – | – | –
2 | B2 | – | – | – | – | – | – | no binding (tested: 1 µg/mL VEGF-A121 (single concentration)) | no binding (tested: 1 µg/mL) | no binding (tested: 1 µg/mL)
